Residue numbers refer to the chain shown, from its start. Numbers in names are those of the source.

From article PMC3880866 (Nature structural & molecular biology, 2012) come the findings set out here.

Data set [1] deals with UbcH5BS~Ub (UbcH5B C85S covalently ester-linked to the C-terminus of ubiquitin) (UniProt P62837;P0CG48, C85S). Description: SPR.
The next data set deals with UbcH5BS D117A~Ub (UniProt P62837;P0CG48, C85S | D117A). The experiment in a line: SPR. A general note: In SPR one partner is held on a chip, and binding of the other changes the refractive index at the surface.
For a further data set, the target named is UbcH5B (UniProt P62837 1-147). The experiment in a line: SPR.
The data set “SEC” concerns the molecule itself. Description: SEC. (In gel filtration, larger molecules generally elute earlier.)

B1: GST-BIRC3(541–C) (domain or fragment)
chain: DLPVEEQLRRLQEERTCKVCMDKEVSIVFIPCGHLVVCKDCAPSLRKCPICRSTIKGTVRTFLS
Turning to B1, the Kd in data set [1] was 5 µM.

B2: MDM2(428–C)–MDMX(428–C) (complex)
chain 1: SSLPLNAIEPCVICQGRPKNGCIVHGKTGHLMACFTCAKKLKKRNKPCPVCRQPIQMIVLTYFP
chain 2: EDCQNLLKPCSLCEKRPRDGNIIHGRTGHLVTCFHCARRLKKAGASCPICKKEIQLVIKVFIA
In data set [1], B2 displayed a Kd of 130 µM.

B3: GST-BIRC7(239–C) (domain or fragment)
chain: VEAQLRRLQEERTCKVCLDRAVSIVFVPCGHLVCAECAPGLQLCPICRAPVRSRVRTFLS
In the case of B3, the Kd in data set [1] was determined as 136 µM.

B4: GST-BIRC7 full length (enzyme)
chain: MGPKDSAKCLHRGPQPSHWAAGDGPTQERCGPRSLGSPVLGLDTCRAWDHVDGQILGQLRPLTEEEEEEGAGATLSRGPAFPGMGSEELRLASFYDWPLTAEVPPELLAAAGFFHTGHQDKVRCFFCYGGLQSWKRGDDPWTEHAKWFPSCQFLLRSKGRDFVHSVQETHSQLLGSWDPWEEPEDAAPVAPSVPASGYPELPTPRREVQSESAQEPGGVSPAEAQRAWWVLEPPGARDVEAQLRRLQEERTCKVCLDRAVSIVFVPCGHLVCAECAPGLQLCPICRAPVRSRVRTFLS
Turning to B4, the values for the Kd (in data set [1]; with UbcH5BS D117A~Ub) were 181 µM and 191 µM, respectively.

B5: RNF2(1–114)–BMI1(1–109) (complex)
chain 1: MSQAVQTNGTQPLSKTWELSLYELQRTPQEAITDGLEIVVSPRSLHSELMCPICLDMLKNTMTTKECLHRFCADCIITALRSGNKECPTCRKKLVSKRSLRPDPNFDALISKIY
chain 2: MHRTTRIKITELNPHLMCVLCGGYFIDATTIIECLHSFCKTCIVRYLETSKYCPICDVQVHKTRPLLNIRSDKTLQDIVYKLVPGLFKNEMKRRRDFYAAHPSADAANG
On to B5, for which the Kd with UbcH5B came to 91 µM.

B6: BIRC7 I284A (as in size exclusion chromatography and ubiquitination assays) (enzyme)
chain: B4 chain with I284A
Consider B6, for which, in the data set “SEC”, the “stoichiometry N” value came out at 2.

B7: BIRC7 R286A (as in size exclusion chromatography and ubiquitination assays) (enzyme)
chain: B4 chain with R286A
Regarding B7, the “stoichiometry N” value in the data set “SEC” stood at 2.

B8: BIRC7 F296H (as in size exclusion chromatography and ubiquitination assays) (enzyme)
chain: B4 chain with F296H
Regarding B8, the “stoichiometry N” value in the data set “SEC” came to 2.

In general, Kd refers to the concentration at which binding is half-saturated. Read a low Kd as tighter binding. The term stoichiometry N denotes the number of molecules, sites or subunits per partner or assembly.
